We go through two substances from paper PMC10294653.

Common to all, as to experiment: two-hybrid; bacterial two hybrid (BACTH): T18 and T25 adenylate cyclase fusions in E. coli BTH101 (cya mutant); beta-galactosidase assay in Miller units; cultures grown overnight at 26°C, subcultured in LB, 37°C for 30 min
For assay [1], the target named is T25 fusion to the N terminus of WcaJ (K. pneumoniae (strain KPPR1S)).
Assay [2] concerns the target T25 fusion to the N terminus of Wzb (K. pneumoniae (strain KPPR1S)).
Assay [3] concerns the target T25 fusion to the N terminus of Wzc (K. pneumoniae (strain KPPR1S)).
Assay [4] deals with leucine zipper (zip) domain, positive control of the bacterial two-hybrid system.
Assay [5] shares this target. This is another data set of the same source.

Read-outs that look alike come from different tables or passages of the source.

For RmpD-T18 (natural protein), the beta-galactosidase activity relative to the zip-zip controls (% of the zip-zip controls) in assay [1] and in assay [2] was below 10 in each case. In assay [3], this substance gave a beta-galactosidase activity of 2150 Miller units.

Turning to “leucine zipper (zip) domain, positive control of the bacterial two-hybrid system (domain or fragment)”, the figures for the beta-galactosidase activity in assay [4] and in assay [5] were 1530 Miller units and 1740 Miller units, respectively.
